Data published in patent US20090203140.

Columns and labels:
Assay in all cases: cell_activity
[1] = system: ZFN 12805 golden; conditions: pair 04.05 (with 12804), 5 ng mRNA
[2] = system: ZFN 12806 golden; conditions: pair 04.06 (with 12804), 5 ng mRNA
[3] = system: ZFN 12776 golden; conditions: pair 75.76 (with 12775), 7 ng mRNA, golden b1 heterozygous embryos
[4] = system: ZFN 13370 notail; conditions: pair ntl_68 (inferred with 13368), 5 ng mRNA; 16% in pair ntl_78
[5] = system: ZFN 12775 golden; conditions: pair 75.76 (with 12776), 7 ng mRNA, golden b1 heterozygous embryos
[6] = system: ZFN 13368 notail; conditions: pair ntl_68 (inferred 13368 with 13370), 5 ng mRNA, ntl b195 het x wildtype cross
[7] = system: ZFN 12804 golden; conditions: pair 04.05 (with 12805), 5 ng mRNA; also 32% in pair 04.06

With “ACCGTCTGGATGAACCACGGCAGGCCCA (double strand) [golden 12805 target]” as the sequence, how does the activity (% embryos with unpigmented eye clones) [1] read?
Its activity (% embryos with unpigmented eye clones) is 32.

For “ACCGTCTGGATGAACCACGGCAGGCCCA (double strand) [golden 12806 target]”, which activity (% embryos with unpigmented eye clones) [2] is on record?
The activity (% embryos with unpigmented eye clones) was 32.

For “ATGCACAGCAGGTTATAGACAGCAGAAC (double strand) [golden 12776 target]”, which activity (% embryos with unpigmented eye clones) [3] is on record?
Its activity (% embryos with unpigmented eye clones) is 23.

With “GCATTAGGGTCGAGACCGGTGACACTGG (double strand) [no tail 13370 target]” as the sequence, how does the activity (% no tail-like embryos) [4] read?
The activity (% no tail-like embryos) was 27.

With “GTGCAGCGTGCGGCCTGCTGTCCTCTGC (double strand) [golden 12775 target]” as the sequence, how does the activity (% embryos with unpigmented eye clones) [5] read?
Its activity (% embryos with unpigmented eye clones) is 23.

Which activity (% no tail-like embryos) [6] does the source give for “TGTACTCGGTCCTGCTGGATTTTGTGGC (double strand) [no tail 13368 target]” here?
Its activity (% no tail-like embryos) is 27.

For “TTGTTGACGTGGGCTCCCCGGTGGATGT (double strand) [golden 12804 target]”, which activity (% embryos with unpigmented eye clones) [7] is on record?
Its activity (% embryos with unpigmented eye clones) is 32.
